According to patent US20040248211A1, “ICAM-related protein” (priority 1992, published 2004):

Columns and labels:
PBMC = PBMC activation markers on immobilized antibody; assay type: cell-based, human; details: immobilized antibody 10 μg/well; no other stimuli
Experimental: Anti-ICAM-R monoclonal antibodies ICR-1.1 and ICR-4.2 were each tested for the ability to induce PMBC activation in the absence of other inducing stimuli. Monoclonal antibodies ICR-1.1 or ICR-4.2 (or control monoclonal antibodies) were added (10 μg/well in PBS) to individual wells of a 96-well flat bottom tissue culture plate and incubated for 3 hours at 37° C. in a 5% CO2 incubator. The plates were washed 3 times with sterile PBS to remove unbound antibody and freshly isolated PBMC were immediately added to a final concentration of 2×10^5 cells/well in a volume of 200 μl media. The plates were then incubated for either 1 or 3 days at which time the cells cultured in the presence of different antibodies were removed, washed as described above in PBS containing 0.01% sodium azide and 1% BSA (FACS buffer) and stained with either FITC (Becton Dickinson)-conjugated negative control antibodies or a panel of FITC-conjugated anti-CD69, anti-transferrin receptor and anti-IL-2 receptor antibodies. Results were obtained by FACScan analysis. […] However, while increased expression of these lymphocyte activation markers was observed after 1 and 3 days this increased expression was unaccompanied by increased cell size.

SKW3 T cells = test: Homotypic aggregation assay, SKW3; assay type: cell-based, human; details: after four hours, Ig and Fab′ at 1 μg/ml
Experimental: Aggregation assays were done in duplicate, with and without addition of PMA (50 ng/ml). 3×10^5 cells in RPMI 1640 medium with 10% fetal calf serum were added in a flat-bottomed 96-well microtest plate. When one antibody was tested in an experiment, 50 μl of purified antibody or hybridoma supernatant were added to the wells (PMA was added at the same time to selected wells). When two antibodies were tested in the same experiment, the antibodies were added sequentially to the cells at room temperature and incubated for 30 minutes each (incubation for 15 minutes at 37° C. produced the same results), and then the cells were incubated at 37° C. […] After incubation with the antibody or antibodies, cells were uniformly resuspended and then incubated at 37° C. for 4 to 24 hours. Aggregation scoring was done with an inverted microscope. In each experiment, the efficacy of the PMA stimulation was checked in parallel by stimulating Raji cells with an equal amount of PMA and determining the amount of aggregation blockable by monoclonal antibodies to CD18, CD11 a, and ICAM-1 molecules.
To confirm that aggregation was induced by the anti-ICAM-R antibodies ICR-2.1, ICR-1.1, and ICR-3.1 the aggregation assays were performed using both the whole immunoglobulin (ICR-1.1-Ig) and Fab′ fragments (ICR-1.1-Fab′) purified from the same anti-ICAM-R monoclonal antibody (ICR-1.1). […]

PBL = test: Pre-incubation on plate-bound antibody then SEA proliferation; assay type: cell-based, human; details: cells moved to clean wells; SEA 10 pg/ml, 3 days
Experimental: The minimum time required for plate-bound anti-ICAM-R to inhibit SEA-induced proliferation was also determined. PBL were pre-incubated on plate-bound ICR-4.2, ICR-1.1 or isotype-matched anti-HLA-I control antibodies B-H9 (IgG1) and I0T2 (IgG2) with or without SEA (10 ρg/ml) for 3, 5 and 7 hours. PBL were then transferred to clean wells and cultured in the presence of SEA (10 pg/ml) for 3 days.

[1] = molecular target: T1, Protein 3 (ICAM-R domains 1-3 fused to ICAM-1) (Homo sapiens, UniProt P05362+P32942, A326V/A340P/A352Q/A353P/D347N/D369N/D382A/E323K/E366P/E384Q/F374S/F385L/G339H/H327S/L386I/M337E/N363K/P354L/P357R/Q343K/Q356P/Q361L/Q393E/R388K/S322R/S330T/S335K/S367E/S390Q/S391T/T325E/T331E/V342A/V392R); test: FACS binding to COS cell transfectants; details: antibody 5.0 ug/ml
T1 construct: domains of ICAM-R (residues 1 to 291) fused to ICAM-1 (residues 317 to 532); ICAM-1 residues 317 to 532 (fusion partner in the same polypeptide); expressed in transfected cells; host or cells: COS cells, plasmid pcDNAAmp.RD1-3.1D4-5
From the text: FIG. 7 is a diagram of the chimeric proteins whose construction is outlined below. Protein number 1 contains the amino-terminal immunoglobulin-like domain of ICAM-R (residues 1 to 93) fused to ICAM-1 (residue 117 to 532). Protein number 2 contains the first two amino terminal immunoglobulin-like domains of ICAM-R (residues 1 to 190) fused to ICAM-1 (residues 216 to 532). Protein number 3 contains the first three immunoglobulin-like domains of ICAM-R (residues 1 to 291) fused to ICAM-1 (residues 317 to 532).
For the anti-ICAM-R monoclonal antibody binding assay, COS cells transfected with constructs encoding the ICAM-R chimeric proteins or control constructs were removed from the plates by EDTA treatment and aliquoted at 2.5×10^5 cells per well in a 96-well round bottom plate. Cells were washed 3 times with ice cold washing buffer (PBS containing 1% BSA and 0.05% sodium azide). Anti-ICAM-R monoclonal antibody was applied at 5.0 ug/ml in 50 ul final volume and incubated on ice for 30 minutes. Cells were then washed three times with cold washing buffer and incubated with the FITC labeled secondary antibody (sheep anti-mouse IgG F(ab′)2) at a 1:100 dilution on ice for 30 minutes in dark in 50 ul final volume. After the incubation, cells were washed again for three times in the ice cold washing buffer and resuspended in 200 ul of 1% paraformaldehyde. The samples were analyzed on a Becton-Dickinson FACScan instrument. Results of the assay are given below in Table 5 as percent positive COS cell transfectants, wherein MOPC 21 (IgG1) and UPC 10 (IgG2a) are isotype matched controls, 18E3D is an ICAM-1 specific monoclonal antibody and ICR-1.1 to ICR-9.2 are ICAM-R specific monoclonal antibodies. The reactivities of monoclonal antibodies ICR-1.1 through ICR-9.2 were assayed in a different experiment than monoclonal antibodies ICR-12.1 through ICR-17.1.

T1 sequence (P32942+P05362 fused with the stated changes): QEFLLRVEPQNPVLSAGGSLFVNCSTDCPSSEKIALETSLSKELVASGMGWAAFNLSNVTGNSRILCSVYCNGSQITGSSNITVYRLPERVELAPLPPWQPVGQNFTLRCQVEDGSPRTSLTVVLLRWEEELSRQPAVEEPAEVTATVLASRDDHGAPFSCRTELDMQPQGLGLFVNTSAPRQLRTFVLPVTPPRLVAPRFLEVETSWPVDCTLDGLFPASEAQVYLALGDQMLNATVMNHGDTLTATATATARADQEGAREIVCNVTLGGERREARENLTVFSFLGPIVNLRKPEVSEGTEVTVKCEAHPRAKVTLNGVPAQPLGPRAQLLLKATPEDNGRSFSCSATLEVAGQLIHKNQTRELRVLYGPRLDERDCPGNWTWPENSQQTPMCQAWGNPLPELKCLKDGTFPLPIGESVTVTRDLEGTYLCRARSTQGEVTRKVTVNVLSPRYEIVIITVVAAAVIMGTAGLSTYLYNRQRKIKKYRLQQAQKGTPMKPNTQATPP

B1: ICR-1.1: anti-ICAM-R monoclonal antibody, IgG2a, domain 1, ATCC HB 11053 (antibody, V domains shown)
VH: QVQLQQSGAELAKPGASVKMSCKASGYTFTVYWMHWVKQRPGQGLEWIGYINPNTDYTEYNQRFQDKATLTADKSSSTAYMQLSSLTSEDSAVYYCARWGGNSYGLDYWGQGTSVTVSS
VL: QIVLTQSPALMSASPGEKVTMTCSASSSVSYIYWYQQKPRSSPKPWIYLTSNLASGVPARFSGSGSGASYSLTISIMEAEDAATYYCQQWKSIPLTFGAGTKLELK
PBMC activation marker expression after 1 day (PBMC): Expression of CD69 and the transferrin receptor but not the IL-2 receptor increased | PBMC activation marker expression after 3 days (PBMC): increased levels of cell surface expression of both the transferrin receptor and IL-2 receptor but not CD69 | Aggregation (SKW3 T cells): 3 (50 to 100% cells were in loose clusters) | SEA proliferation after 3 hours pre-incubation on immobilized antibody (PBL): significantly reduced proliferation | percent positive COS cell transfectants, Protein 3 [1]: 52.71%
